The text below walks through data of publication PMC4565748 (Molecular immunology, 2015).

B1: SCIN-A: full-length staphylococcal complement inhibitor SCIN-A, Staphylococcus aureus strain Mu50 (protein)
chain: STSLPTSNEYQNEKLANELKSLLDELNVNELATGSLNTYYKRTIKISGQKAMYALKSKDFKKMSEAKYQLQKIYNEIDEALKSKY
B2: SCIN-A.R42A: full-length SCIN-A with Arg-42 alanine mutation (protein)
chain: STSLPTSNEYQNEKLANELKSLLDELNVNELATGSLNTYYKATIKISGQKAMYALKSKDFKKMSEAKYQLQKIYNEIDEALKSKY
B3: SCIN-A.Q49A (protein)
chain: STSLPTSNEYQNEKLANELKSLLDELNVNELATGSLNTYYKRTIKISGAKAMYALKSKDFKKMSEAKYQLQKIYNEIDEALKSKY

For this assay, the target named is C3b (Homo sapiens, UniProt P01024). In words: SPR direct binding to site-specifically immobilized C3b. As to conditions: SPR kinetic analysis, 1:1 Langmuir model. In general terms: Surface plasmon resonance follows binding to a sensor surface in real time, without labels.
Sequence of C3b (P01024 23-667 limits assumed): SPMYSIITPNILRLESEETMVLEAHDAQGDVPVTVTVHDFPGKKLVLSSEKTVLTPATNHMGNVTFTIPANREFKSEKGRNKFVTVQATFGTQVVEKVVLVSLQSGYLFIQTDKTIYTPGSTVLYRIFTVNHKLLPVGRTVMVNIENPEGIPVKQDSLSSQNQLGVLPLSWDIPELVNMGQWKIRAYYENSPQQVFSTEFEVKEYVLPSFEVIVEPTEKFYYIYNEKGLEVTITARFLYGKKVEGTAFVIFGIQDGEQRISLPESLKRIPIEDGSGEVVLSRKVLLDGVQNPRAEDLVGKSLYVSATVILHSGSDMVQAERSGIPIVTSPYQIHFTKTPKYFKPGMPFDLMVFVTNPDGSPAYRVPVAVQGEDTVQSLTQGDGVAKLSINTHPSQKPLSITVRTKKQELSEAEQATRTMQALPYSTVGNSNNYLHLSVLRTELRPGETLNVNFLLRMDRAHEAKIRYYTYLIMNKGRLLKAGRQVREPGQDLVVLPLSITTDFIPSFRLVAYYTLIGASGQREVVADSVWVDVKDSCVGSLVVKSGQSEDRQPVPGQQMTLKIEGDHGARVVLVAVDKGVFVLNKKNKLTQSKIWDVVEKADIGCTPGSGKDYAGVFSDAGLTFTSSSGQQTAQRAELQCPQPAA
Sequence of C3b (P01024 749-1663 limits assumed): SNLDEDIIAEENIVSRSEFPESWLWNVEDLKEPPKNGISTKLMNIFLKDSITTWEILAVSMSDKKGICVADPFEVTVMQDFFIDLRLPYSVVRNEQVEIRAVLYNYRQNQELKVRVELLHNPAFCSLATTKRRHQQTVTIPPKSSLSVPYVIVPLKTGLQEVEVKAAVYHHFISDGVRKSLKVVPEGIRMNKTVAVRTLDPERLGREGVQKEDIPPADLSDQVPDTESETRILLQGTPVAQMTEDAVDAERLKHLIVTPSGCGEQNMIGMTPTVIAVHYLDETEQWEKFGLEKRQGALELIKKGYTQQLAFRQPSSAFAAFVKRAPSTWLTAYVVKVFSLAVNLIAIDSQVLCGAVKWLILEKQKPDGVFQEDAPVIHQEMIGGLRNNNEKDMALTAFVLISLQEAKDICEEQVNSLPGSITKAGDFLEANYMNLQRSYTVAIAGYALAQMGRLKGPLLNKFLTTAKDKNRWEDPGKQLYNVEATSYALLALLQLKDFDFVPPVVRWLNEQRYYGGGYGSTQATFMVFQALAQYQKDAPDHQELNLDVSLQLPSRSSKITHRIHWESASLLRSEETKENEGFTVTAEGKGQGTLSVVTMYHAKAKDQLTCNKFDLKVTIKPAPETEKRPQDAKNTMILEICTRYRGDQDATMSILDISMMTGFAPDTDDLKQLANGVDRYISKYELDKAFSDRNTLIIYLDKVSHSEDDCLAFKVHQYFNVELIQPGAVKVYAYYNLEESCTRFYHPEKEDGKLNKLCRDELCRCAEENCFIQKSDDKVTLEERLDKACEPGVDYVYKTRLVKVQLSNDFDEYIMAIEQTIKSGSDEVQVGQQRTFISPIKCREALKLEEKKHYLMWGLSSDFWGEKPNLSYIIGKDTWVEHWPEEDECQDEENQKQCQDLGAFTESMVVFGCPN
For B1, the ka result is on record as “(5.5 ± 0.15) × 10^5 M^−1s^−1” and the kd entry is “(5.1 ± 0.52) × 10^−2 s^−1”.

Consider B2, for which the ka result is “(8.9 ± 0.15) × 10^4 M^−1s^−1” and the kd entry is listed as “(5.8 ± 0.45) × 10^−1 s^−1”.

Regarding B3, the ka result is reported as “(7.6 ± 2.0) × 10^5 M^−1s^−1” and the kd entry is given as “(5.1 ± 0.73) × 10^−2 s^−1”.
